In a protein production outcome set (Wang et al. 2014):

Assay: label from the status in PepcDB records

Row | Sequence | protein production
1 | MALDEAPAEARPGSRAVELEIDGRSRIFDIDDPDLPKWIDEEAFRSDDYPYKKKLDREEYEETLTKLQIELVKVQFWMQATGKRVMAVFEGRDAAGKGGAIHATTANMNPRSARVVALTKPTETERGQWYFQRYVATFPTAGEFVLFDRSWYNRAGVEPVMGFCTPDQYEQFLKEAPRFEEMIANEGIHLFKFWINIGREMQLKRFHDRRHDPLKIWKLSPMDIAALSKWDDYTGKRDRMLKETHTEHGPWAVIRGNDKRRSRINVIRHMLTKLDYDGKDEAAIGEVDEKILGSGPGFLR | not failed
2 | MALDSSGKQPEQQQQQQPRASSGNGEARLKLRRTPNEEHEPENYEDLPLDYSPSLFTSLERYLPEQLLNSTRIDKASFMRDLLLRYSPDTERVRVLRHKEYRDKIMSSYQRLHGEIYTLDPSSFFAPSFLGAFSRKSEPNFRSSMVESYPGIFTFEMFKPQFCEMLLAEVEHMEKWVYDSRSTIMRPNTMNNFGVVLDDFGFDSMLQKLVDDFISPIAQVLFPEVCGTSLDSHHGYIVEYGKDRDVDLGFHVDDSEVSLNVCLGKQFSGGELYFRGVRCDKHVNSDSTEKEVYDYSHVPGHAILHRGRHRHGARATTSGHRANLILWCRSSTFREMKNYQRDFSGWCGGCKLDKQRRQRDSINATKEILARKAAEKTLVELASKSCAE | failed
3 | MALEPAEIFEKVSPSVWEVRVIGPDGKGLSMGSAVVIGDGVVITNCHVLRGGKQVWLKRGNANFGARLQYPDVERDLCQLRVADFHYPPVTLAPGSALVTGQKVYAIGNPLGLELTISEGLISSLRTDDDGRLKSVQTSAAISRGSSGGGLFDANGRLIGITDHQVVLTLGQNLNFAIPADWIADVPARAQKALAARAAAASAVVASTPAPQSAAPTPAPAPAPRHQGELGPNQQTGFSVYLQKTWPKAFVAADGDHYYYWTGKNAELYALSACQERWQNCSVYARNNTVVEPVEGTGERPGAAR | failed
4 | MALGLLPLVLLTLSIFIYLVSKMSWKMGALLNFLAGLFTILYVFTLKVGTFEKLDLFGLNIQFEWTNVSFYFSFVSLLVIVSVMLFSTKWLETQKYRASYNMFLLMVTAGSLGVFMAADLITLYVFWEIAVLSSLLIVPMEKKEARKAVVVYAVMSAVGTYAFLYGTFLAYQRYGTLNIHGIAQGMLNDTSIGFKMAVFLLLSAAGIAKSGIFPLHIWLRETHGLAPNAFSSVLSGQFIKLGNYIFLLVLSVIPSLKVFSEVTVYSGIPLPNYILIALGNVSIVIGTLMAIKQDDMKMLMAYSSVANGGYILIGIGTMDPLGFEGGMFHIFNHAVASAVIFMAFAAVIYRTKTQKISEMGGLIHKMPVTFLVYLFSIISLAGIPPMSGFISKWMIYQALVRKGMFITAFLAFFGSIGSFLYVFRPLAGVFLGQLPRKYRDVKEAPAVMLTPMVLLVLISFFLGVWPFPILQAIEKIRVDLDVAPSFKISDPENWLVKGFAGSWNPVLVFGLFLVGFIVAYILYSLFPRPKKVDLLAPHREEGTPINIYTGGEFIYNPDLYHYNTKFYAGFERMYEKHPSWEKLLKMFGKLFHDAGEWIHSWFFEPSSSAYTFWVVVTLLLVFWVRW | failed
5 | MALKATIYKADLNIANMDSHHYADYQLTLALHPSETIERLMVRILAFARFADENLQFTKDLFETDEPALWQKDLTGQLEQWIELGQPSEDKLKKASARCKHVVVVTYGQQVDEWWKRNNKVKTLSNVEVWQLAPETTSQLEKLCERTMQLQLNVMDGEWTLLNDHEQVDVSWTKLH | failed
6 | MALLKSPIFGICFSLILYTIGQDLFKKSKGFFLLQPLFFAMVAGIIVLVLLAKGLGTDVKTLYTQAYKPGGDLIFWFLNPATIAFAVPLYKKNDAVKKYWKEIISSLIIGMVVSLIIIVAISKAIGLSQASTASMLPQAATTAIALPIAHAIGGNTAITAMACILNAVIIYALGKKLVALFHLNKSEIGVGLGLGTSGHTVGAAFALELGELQGAMAAIAVVVIGLVVDLVIPIFSYMIGLVH | failed
7 | MALLLAALLVLLTALLAVRLPAWASALLLGLLAGSGYALGVRSEALPAGALLLLGALAAPRLYLGPRRRKRPERRPPGPKRPAAAGTTAEREALSQRYEILEKVGLGGMATVYKAKDRKTGRLVALKVPQERFLGDPRFVRRFHREAEVLTRMDHPNIVKVYDHGQVEGVHYIAMEFLDGEGLDKLIEERRLSLRQAAAILARVADALKHIHAQGIVHRDIKPGNIMVLKGALREDGVDPRGVRLMDFGIAAGRVLTRLTITGARIGTPVYMSPEQAKGQKLDHRSDIYSLGIVLYEALTGQPPFTGGYETVIHQQIFQMPTPPKQLRPEIPQALSDLVLRMLEKDPAKRPGLDEVVRVLEGPWEEERELPEAQYLLVAVEAKKGAVRLLDLEGTPARLLSGVGSGAGQFPSPPLAVAADPEGGIWVAVFQHGERLVHRLSPQGEVLLSTGPYGMKPGEFLLPVGLAVLEDQVFVLDGETATVSRLDLAGRYQGRFGGQGLGRGTFQDPKALVAAEGHLFVLDYGNRQVQRLTPEGGYLSRYAFRRSREDGALRLLGGVGVGEGRLYLYDVEAVKVRVLDLSGRLLASYPLPLLEGEDRMSLVELLPVGRVLYAARRGSSRIHRISLDTGEALPPLEVYAPVRGLALWRRTP | failed
8 | MALMTNKTRALLIGGHGKVALLATPMLIDASVQVTSMYRNPDHRSEIEALGATTLERDVTTLSVEDWADLLKDFDVVVWSAGNGGKNGADATYAIDRDAAIASIDGAASLGEKAPRYIMVSYIGSSTHTIDPSASFYPYAESKKAADEHLSSTNLDYLILAPAALTLDEVNGVEVIADTNEAAAGRTTSRVLVAEVITEFVVRDFPQTRVLPFVDGESPLEHHHHHH | not failed
9 | MALNLKQRLEQKFEEEIRFFKGMVSQPKKVGAIVPTSSITAKKMASVINPHSGLPVLELGPGTGVITKAILARGIKPESLTAIEYSTDFYNQLLRSYPGVNFVNGDAFDLDATLGEHKGQMFDSVISAVPMLNFPMAARIKLLDELLKRVPHGRPVVQISYGPISPIVAQPHLYHIRHFDFIVRNIPPAQLWTYTRALEHHHHHH | failed
10 | MALPHVVSSPSSTSLSPSFKSKPPFHSLRSLSPTVDNRRRCKLNSSFRCSSSSFSEKHHNAKSPKSDDIVELPLFPLPLVLFPGAILPLQIFEFRYRIMMHTLLQSDLRFGVVYSDSVSGSAAEVGCVGEVVKHERLVDDRFFLVCKGQERFRVTNVVRTKPYLVGEVTWLEDRPSGEENLDSLANEVEVLMKEVIRLSNRLNGKAEKEVQDLRRNQFPTPFSFFVGSTFEGAPREQQALLELEDTAARLKRERETLRNTLNYLTAASAVKDVFPSSS | failed
11 | MALQSSVRAFKKPPRPLVDEVRFLRSWIEKPLHMGAVMPSGKLLARTMARYVDIQSDGPVIELGPGTGAITNALVEHGVDQKRLVLLEFDPGFCALLRERFPLAKVVQGDAYRLRDSLWDALEIPATAVVSGLPLVTKPMLTRMKLIRDAFTLLEPGAPFVQFTYSVAPPIPKSLPGVSTEGSERIWMNVPPARVWVYRKRLEHHHHHH | failed
12 | MALRSLVLFAALALVGCSSSPTADLVLTNGTVATLDDDHEQVEALAAADDTLLAVGSADAIDAYVGGDTRVIDLQGRLAVPGFIEGHGHYMGMGQAQMQLDLLGTSSWGRVVAKVDSSADETASGAWVEGRGWHQEKWTSTPERMVRGFPTNARLNEAAPDTPVYLTHASGHAAIANDAALEAAGIGPNTPDPEGGTIVRDAQERVTGVLLETAAGLVQEALDASRSGMSAADRRARRERQVRLAAEEALANGVTSFQDQGASFETIRLYREMAERGALDIRMYAMVAQGEVTPETQERLAEIRTVGAADQHLTVRAIGEVTVDGALGSRSAWMLEPYDDAPNDTGINVTPMERVREIAEIGLDEDYQIAVHAIGDRANRETLDLYASLFEAADGRGAERRWRVEHAQHLHPDDISRFADLGVMASMQAIHACSDAPYNYQRLGAQRVDQGAYLWNTLWADGAVVGNGTDVPVEKIDPLASLHCTATRQVPGTDTTFTPDETLTRRRALQSYTINNARMAFEEDVKGTLTPGKLADVTVLSENILTGPPERLREATVDYTIVGGEVAYANE | failed
13 | MALSADIVGMHYRYPDHYEVEREKIREYAVAVQNDDAWYFEEDGAAELGYKGLLAPLTFICVFGYKAQAAFFKHANIATAEAQIVQVDQVLKFEKPIVAGDKLYCDVYVDSVREAHGTQIIVTKNIVTNEEGDLVQETYTTLAGRAGLEHHHHHH | not failed
14 | MALTEAWLIEKANRKLNAGGMYKITSDKTRNVIKKMAKEGIYLCVAQGYRSTAEQNALYAQGRTKPGAIVTNAKGGQSNHNYGVAVDLCLYTNDGKDVIWESTTSRWKKVVAAMKAEGFKWGGDWKSFKDYPHFELCDAVSGEKIPAATQNTNTNSNRYEGKVIDSAPLLPKMDFKSSPFRMYKVGTEFLVYDHNQYWYKTYINDKLYYMYKSFCDVVAKKDAKGRIKVRIKSAKDLRIPVWNNTKLNSGKIKWYAPNTKLAWYNNGKGYLELWYPSDGWYYTANYFLK | failed
15 | MAMNLRKNQAPLYIKVHEIDNTAIIVNDGGLPKGTVFSCGLVLEEDVPQGHKVALTDLNQGDEIVRYGEVIGFADETIKRGSWIREALVRMPAP | failed
16 | MAMPEIDALLGLSFCLYFFDNKQHKLPHIHVKYGSYELIIAIETGECLEGYLPNKQRKRAENHILEHREQLMVMWNKAVNGENPGKLGDLCLEHHHHHH | failed
17 | MANENVAFENKRQVYHYEPPIQKEEAIPKQYFAGFWIRFLAYLVDLVVIAALKGIIINPIFRVSGMGMDDSFFTFYWGMTTIIFLAYFILLTKFFGQTLGKMLFGLRVVKLDGGKLTWLTVLFREGAMRFVLKTIWPLYVVCAFTPNKQGIADFFESTSVVHTGYLELDEKWVNGAKK | failed
18 | MANIVFIATSLDGYIADKRGKLDWLHSVPNPNNVDTGFVALMERVDGLVMGRNTLDMVLSFDCDWPYSKPVFVLSNTMTEVPQGYEDKVFLVKGKLVDIIADLNAKGFNELYIDGGVTIQNFLKEDLIDEMVITRFPILLGGGVPLFGELESSLSFNVIKSEVVLDSLTQTTYHRKRA | not failed
19 | MANKKGRRRSFGSCRQLASGRWQVRYRDPQTGLLRPAEKTYETKTDAQVALTHIEADITRGQWADPDAGDVNFADYATAWLRDRKLADRTRERNESVMRLHVVPVFGAGSIADVTTARVRSWRGKLLAAGVGEPTVVKAYQLLRALMNTAVDDELIRRNPCRIKGADSYDVPERPVLSVAEVFGVAYAIAPRYRLLVLLAAFTTLRFGELAALRRKDIDLNGRLVVVRRAQAELQNGRLFDKAPKSAAGLRTVSFPAELVDEISHHLKHYAADGQEGHLFVGPQGGQLRRSNFRDDWIKARKAAGVSPKLHFHDLRHTGNTLASTAGASTRELMTRMGHSSSRAALIYQHMTSDRDRTIADRLGAMIRNGEGDLTAAGD | failed
20 | MANKNPLQKPFLFIILSINLIFLQAETTTQISTKKTYVIHMDKSAMPLPYTNHLQWYSSKINSVTQHKSQEEEGNNNRILYTYQTAFHGLAAQLTQEEAERLEEEDGVVAVIPETRYELHTTRSPTFLGLERQESERVWAERVTDHDVVVGVLDTGIWPESESFNDTGMSPVPATWRGACETGKRFLKRNCNRKIVGARVFYRGYEAATGKIDEELEYKSPRDRDGHGTHTAATVAGSPVKGANLFGFAYGTARGMAQKARVAAYKVCWVGGCFSSDILSAVDQAVADGVQVLSISLGGGVSTYSRDSLSIATFGAMEMGVFVSCSAGNGGPDPISLTNVSPWITTVGASTMDRDFPATVKIGTMRTFKGVSLYKGRTVLPKNKQYPLVYLGRNASSPDPTSFCLDGALDRRHVAGKIVICDRGVTPRVQKGQVVKRAGGIGMVLTNTATNGEELVADSHMLPAVAVGEKEGKLIKQYAMTSKKATASLEILGTRIGIKPSPVVAAFSSRGPNFLSLEILKPDLLAPGVNILAAWTGDMAPSSLSSDPRRVKFNILSGTSMSCPHVSGVAALIKSRHPDWSPAAIKSALMTTAYVHDNMFKPLTDASGAAPSSPYDHGAGHIDPLRATDPGLVYDIGPQEYFEFLCTQDLSPSQLKVFTKHSNRTCKHTLAKNPGNLNYPAISALFPENTHVKAMTLRRTVTNVGPHISSYKVSVSPFKGASVTVQPKTLNFTSKHQKLSYTVTFRTRFRMKRPEFGGLVWKSTTHKVRSPVIITWLPPL | failed
